From article PMC5779225 come the findings set out here.

A short description of this data set: surface biotinylation, NeutrAvidin pull-down, immunoblot. Conditions: glycan lost; control: wild type. On the technique in general: In western blotting, separated proteins are transferred to a membrane and probed.

B1: Frizzled3 (Fzd3): N42Q (protein)
parent chain: MAVSWIVFDLWLLTVFLGQIGGHSLFSCEPITLRMCQDLPYNTTFMPNLLNHYDQQTAALAMEPFHPMVNLDCSRDFRPFLCALYAPICMEYGRVTLPCRRLCQRAYSECSKLMEMFGVPWPEDMECSRFPDCDEPYPRLVDLNLVGDPTEGAPVAVQRDYGFWCPRELKIDPDLGYSFLHVRDCSPPCPNMYFRREELSFARYFIGLISIICLSATLFTFLTFLIDVTRFRYPERPIIFYAVCYMMVSLIFFIGFLLEDRVACNASSPAQYKASTVTQGSHNKACTMLFMVLYFFTMAGSVWWVILTITWFLAAVPKWGSEAIEKKALLFHASAWGIPGTLTIILLAMNKIEGDNISGVCFVGLYDVDALRYFVLAPLCLYVVVGVSLLLAGIISLNRVRIEIPLEKENQDKLVKFMIRIGVFSILYLVPLLVVIGCYFYEQAYRGIWETTWIQERCREYHIPCPYQVTQMSRPDLILFLMKYLMALIVGIPSIFWVGSKKTCFEWASFFHGRRKKEIVNESRQVLQEPDFAQSLLRDPNTPIIRKSRGTSTQGTSTHASSTQLAMVDDQRSKAGSVHSKVSSYHGSLHRSRDGRYTPCSYRGMEERLPHGSMSRLTDHSRHSSSHRLNEQSRHSSIRDLSNNPMTHITHGTSMNRVIEEDGTSA
For B1, the localisation_or_trafficking result is on record as “decreases”.

B2: Frizzled3 (Fzd3): 2NQ (protein)
parent chain: MAVSWIVFDLWLLTVFLGQIGGHSLFSCEPITLRMCQDLPYNTTFMPNLLNHYDQQTAALAMEPFHPMVNLDCSRDFRPFLCALYAPICMEYGRVTLPCRRLCQRAYSECSKLMEMFGVPWPEDMECSRFPDCDEPYPRLVDLNLVGDPTEGAPVAVQRDYGFWCPRELKIDPDLGYSFLHVRDCSPPCPNMYFRREELSFARYFIGLISIICLSATLFTFLTFLIDVTRFRYPERPIIFYAVCYMMVSLIFFIGFLLEDRVACNASSPAQYKASTVTQGSHNKACTMLFMVLYFFTMAGSVWWVILTITWFLAAVPKWGSEAIEKKALLFHASAWGIPGTLTIILLAMNKIEGDNISGVCFVGLYDVDALRYFVLAPLCLYVVVGVSLLLAGIISLNRVRIEIPLEKENQDKLVKFMIRIGVFSILYLVPLLVVIGCYFYEQAYRGIWETTWIQERCREYHIPCPYQVTQMSRPDLILFLMKYLMALIVGIPSIFWVGSKKTCFEWASFFHGRRKKEIVNESRQVLQEPDFAQSLLRDPNTPIIRKSRGTSTQGTSTHASSTQLAMVDDQRSKAGSVHSKVSSYHGSLHRSRDGRYTPCSYRGMEERLPHGSMSRLTDHSRHSSSHRLNEQSRHSSIRDLSNNPMTHITHGTSMNRVIEEDGTSA
Turning to B2, the localisation_or_trafficking entry was “changes”.

B3: Frizzled3 (Fzd3): N356Q (protein)
parent chain: MAVSWIVFDLWLLTVFLGQIGGHSLFSCEPITLRMCQDLPYNTTFMPNLLNHYDQQTAALAMEPFHPMVNLDCSRDFRPFLCALYAPICMEYGRVTLPCRRLCQRAYSECSKLMEMFGVPWPEDMECSRFPDCDEPYPRLVDLNLVGDPTEGAPVAVQRDYGFWCPRELKIDPDLGYSFLHVRDCSPPCPNMYFRREELSFARYFIGLISIICLSATLFTFLTFLIDVTRFRYPERPIIFYAVCYMMVSLIFFIGFLLEDRVACNASSPAQYKASTVTQGSHNKACTMLFMVLYFFTMAGSVWWVILTITWFLAAVPKWGSEAIEKKALLFHASAWGIPGTLTIILLAMNKIEGDNISGVCFVGLYDVDALRYFVLAPLCLYVVVGVSLLLAGIISLNRVRIEIPLEKENQDKLVKFMIRIGVFSILYLVPLLVVIGCYFYEQAYRGIWETTWIQERCREYHIPCPYQVTQMSRPDLILFLMKYLMALIVGIPSIFWVGSKKTCFEWASFFHGRRKKEIVNESRQVLQEPDFAQSLLRDPNTPIIRKSRGTSTQGTSTHASSTQLAMVDDQRSKAGSVHSKVSSYHGSLHRSRDGRYTPCSYRGMEERLPHGSMSRLTDHSRHSSSHRLNEQSRHSSIRDLSNNPMTHITHGTSMNRVIEEDGTSA
For the protein B3, the localisation_or_trafficking entry was “abolishes”.
